Test results as given in doi:10.1101/552281 (bioRxiv, 2019).
Where a chain is given by its changes, count along the chain named. Names may count otherwise. Where two headings read alike, the source gives them in different places.

B1: ΔN13-hPAH (human phenylalanine hydroxylase lacking the N-terminal 13 residues) (enzyme, UniProt P00439 14-452, looked up)
chain: KLSDFGQETSYIEDNCNQNGAISLIFSLKEEVGALAKVLRLFEENDVNLTHIESRPSRLKKDEYEFFTHLDKRSLPALTNIIKILRHDIGATVHELSRDKKKDTVPWFPRTIQELDRFANQILSYGAELDADHPGFKDPVYRARRKQFADIAYNYRHGQPIPRVEYMEEEKKTWGTVFKTLKSLYKTHACYEYNHIFPLLEKYCGFHEDNIPQLEDVSQFLQTCTGFRLRPVAGLLSSRDFLGGLAFRVFHCTQYIRHGSKPMYTPEPDICHELLGHVPLFSDRSFAQFSQEIGLASLGAPDEYIEKLATIYWFTVEFGLCKQGDSIKAYGAGLLSSFGELQYCLSEKPKLLPLELEKTAIQNYTVTEFQPLYYVAESFNDAKEKVRNFAATIPRPFSVRYDPYTQRIEVLDNTQQLKILADSINSEIGILCSALQKIK
B2: full-length human phenylalanine hydroxylase (enzyme, UniProt P00439 1-452, looked up)
chain: MSTAVLENPGLGRKLSDFGQETSYIEDNCNQNGAISLIFSLKEEVGALAKVLRLFEENDVNLTHIESRPSRLKKDEYEFFTHLDKRSLPALTNIIKILRHDIGATVHELSRDKKKDTVPWFPRTIQELDRFANQILSYGAELDADHPGFKDPVYRARRKQFADIAYNYRHGQPIPRVEYMEEEKKTWGTVFKTLKSLYKTHACYEYNHIFPLLEKYCGFHEDNIPQLEDVSQFLQTCTGFRLRPVAGLLSSRDFLGGLAFRVFHCTQYIRHGSKPMYTPEPDICHELLGHVPLFSDRSFAQFSQEIGLASLGAPDEYIEKLATIYWFTVEFGLCKQGDSIKAYGAGLLSSFGELQYCLSEKPKLLPLELEKTAIQNYTVTEFQPLYYVAESFNDAKEKVRNFAATIPRPFSVRYDPYTQRIEVLDNTQQLKILADSINSEIGILCSALQKIK
B3: hPAH mutant Y138F (enzyme, human, UniProt P00439 1-452, looked up)
chain: B2 chain with Y138F
B4: hPAH mutant S23A (enzyme, human, UniProt P00439 1-452, looked up)
chain: B2 chain with S23A
B5: hPAH mutant Y377F (enzyme, human, UniProt P00439 1-452, looked up)
chain: B2 chain with Y377F

What was measured:
[1] = target: catalytic domain of human phenylalanine hydroxylase (hPAH-CD) (human); test: crystal structure
[2] = target: the molecule itself; test: crystal structure
[3] = target: the molecule itself; test: cryo-EM structure
[4] = target: the molecule itself

Row | Molecule | stoichiometry N [4] | also measured
1 | catalytic domain of human phenylalanine hydroxylase (hPAH-CD) (domain or fragment) |  | stoichiometry N [1]: 2
2 | B1 |  | stoichiometry N [2]: 4
3 | B2 |  | stoichiometry N [3]: 4
4 | B3 | 4 | 
5 | B4 | 4 | 
6 | B5 | 4 | 
